± gives the standard deviation.

This data set can be described thus: protein stability index of a GFP-peptide fusion (GPS, HEK-293T) (PSI 1-6); higher = more stable.
Setting [1] is: treatment: DMSO, c terminus: a fixed tail appended.
Where [2] appears, read: treatment: MLN4924 1 uM, 8 h, c terminus: a fixed tail appended.
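Also: 24-mer peptide tiles fused after GFP, lentivirally expressed, FACS-sorted into six equal bins by GFP/DsRed ratio, decoded by Illumina sequencing, PSI is the read-weighted mean bin number.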

IPQAGGWGPWGPWGDCSRTCGGGV [ADAMTS4]: the protein stability index is, setting by setting: under setting [1], 2.68 ± 0.15; under setting [2], 2.47 ± 0.22.

In the case of IPVLYCMVFIAGILLNGVSGWIFF [P2RY14], the protein stability index reads like this: under setting [1], 3.28 ± 0.64; under setting [2], 2.9 ± 0.37.

For IRKGESRSEALAVDGAGKPGAEEA [CHGA], the protein stability index runs as follows: under setting [1], 5.48 ± 0.12; under setting [2], 5.43 ± 0.31.

On to ISKNSEKKMESEEDSNWEKSPDNE [GOLPH3L], for which the protein stability index stood at 5.57 ± 0.21 under setting [1] and 5.58 ± 0.1 under setting [2].

For the sequence ISLNMCLLGALVLLGLGVLLFSGG [PBXIP1], the protein stability index is 2.03 ± 0.24 under setting [1] and 2.15 ± 0.2 under setting [2].

Consider ITTNRFYGPQVNNISHTKEKKKGK [WASL], for which the protein stability index stood at 4.17 ± 0.42 under setting [1] and 4.37 ± 0.29 under setting [2].

Take IVDQVLEEDFDSEQLSVLASCLQE [INTS3]: the protein stability index worked out at 4.16 ± 0.16 under setting [1] and 4.23 ± 0.3 under setting [2].

For IVISPFRLEELTNRLASLQQENKV [CCDC6], the protein stability index by setting is: under setting [1], 2.12 ± 0.15; under setting [2], 2.4 ± 0.25.

As to IVQGSSGAQGSGGGSTSAHYAVNS [CARM1], the protein stability index under setting [2] was determined as 3.98 ± 0.91.

With IVYATEKKQTKVEFPEARIFEETL [KCTD13], the protein stability index runs as follows: under setting [1], 3 ± 0.11; under setting [2], 2.85 ± 0.35.

In turn, IWDALDWTMQAYERNFWDPSPQLD [WDR41] registered a protein stability index under setting [1] of 2.2 ± 0.27 and a protein stability index under setting [2] of 2.02 ± 0.34.

As for IYVIGGYDGRSRLSSVECLDYTAD [KLHL12], the protein stability index runs as follows: under setting [1], 2.86 ± 0.46; under setting [2], 2.63 ± 0.41.

KAQQEFAAGVFSNPAVRTAAANAA [SCAMP3]: the protein stability index is, setting by setting: under setting [1], 4.13 ± 0.11; under setting [2], 4.11 ± 0.24.

On to KARVLRSKSLCHDEIENLLDSDHR [CDC25B], for which the protein stability index is, setting by setting: under setting [1], 4.4 ± 0.13; under setting [2], 4.62 ± 0.15.

For the sequence KAVVFFVFYLWSAIEIFRYSFYML [HACD3], the protein stability index is 3.46 ± 0.28 under setting [1] and 3.08 ± 0.32 under setting [2].

With KCEHCRVLFLDHVMYTIHMGCHGF [IKZF1], the protein stability index reads like this: under setting [1], 2.24 ± 0.38; under setting [2], 2.49 ± 0.63.

Turning to KCVVHIHTPAGAAVSAMKCGLLPI [ADD1], the protein stability index is 2.69 ± 0.52 under setting [1] and 2.17 ± 0.56 under setting [2].

Consider KDLSNTFAKLEKLTILAKRKSLFD [STX5], for which the protein stability index by setting is: under setting [1], 2.45 ± 0.16; under setting [2], 2.51 ± 0.32.

For the sequence KDYNNLWIIKKHNTNSDPLDPSFP [POMT2], the protein stability index under setting [1] was 3.15 ± 0.19 and the protein stability index under setting [2] came to 3.29 ± 0.26.

Take KELCAMSEEQFRQRSPLGGDVLHA [SPDEF]: the protein stability index runs as follows: under setting [1], 3.88 ± 0.27; under setting [2], 3.87 ± 0.13.

With KELDENVEYEERESEFDIEDEDKS [RBBP5], the protein stability index came out at 5.65 ± 0.23 under setting [1] and 5.62 ± 0.32 under setting [2].

In the case of KEMEQLFSQYGRIITSRILVDQVT [ELAVL3], the protein stability index under setting [1] came out at 2.94 ± 0.24 and the protein stability index under setting [2] was found to be 3.41 ± 0.58.

As to KEVVKKHSQFIGYPITLYLEKERE [HSP90AB1], the protein stability index under setting [2] turned out to be 3.32 ± 0.24.

As to KFGRTCLHAAAAGGNVECIKLLQS [ANKRD44], the protein stability index reads like this: under setting [1], 2.44 ± 0.45; under setting [2], 2.55 ± 0.12.

KFGVVQTSVEECSQKGCLALSLLE [CLCN6] returned a protein stability index under setting [1] of 2.81 ± 0.071 and a protein stability index under setting [2] of 2.99 ± 0.22.

Turning to KGGYKEFFPQHPNFCEPQDYRPMN [CDC25B], the protein stability index is, setting by setting: under setting [1], 3.52 ± 0.18; under setting [2], 3.37 ± 0.2.

In the case of KGKLMVCYETLPRGQCLLYNWEEE [SPAG8], the protein stability index by setting is: under setting [1], 2.55 ± 0.32; under setting [2], 2.7 ± 0.34.

KGSLPQPPITEVESQVFSEKLATD [ZNF232] registered a protein stability index under setting [1] of 5.44 ± 0.17 and a protein stability index under setting [2] of 5.24 ± 0.24.

The sequence KHHNLEGLRKRIATLFFHYIKTPL [IQUB] registered a protein stability index under setting [1] of 3.05 ± 0.27 and a protein stability index under setting [2] of 2.66 ± 0.59.

KIIREIDFYREDEDEEEEEGGEGE [TRIM55]: the protein stability index is, setting by setting: under setting [1], 5.18 ± 0.26; under setting [2], 5.06 ± 0.24.

Regarding KIKKSPLTICYPEYAGSNTYEEAA [GNAI1], the protein stability index is 3.34 ± 0.26 under setting [1] and 3.91 ± 0.28 under setting [2].

Turning to KKHEFLTSVLDALSTDMVHAASDP [SMOC2], the protein stability index is, setting by setting: under setting [1], 3.33 ± 0.24; under setting [2], 3.46 ± 0.18.

As for KLENARLSSEMNTSTVNSAREELM [LMNB1], the protein stability index under setting [1] amounted to 4.59 ± 0.19 and the protein stability index under setting [2] was determined as 4.71 ± 0.11.

Consider KLRQMRVEKFIYENHPDVFSDSSM [MYOZ1], for which the protein stability index turned out to be 2.43 ± 0.17 under setting [1] and 2.64 ± 0.41 under setting [2].

With KNHSTVTVEEAKAEKETELSLQKE [TRIM29], the protein stability index was 5.57 ± 0.24 under setting [1] and 5.58 ± 0.23 under setting [2].

On to KNRPAMNYDKLSRSIRQYYKKGII [SPDEF], for which the protein stability index reads like this: under setting [1], 2.46 ± 0.3; under setting [2], 2.42 ± 0.48.

Consider KPYAVMVFQTEQKNLFRLEMDMVV [N4BP2L1], for which the protein stability index by setting is: under setting [1], 2.7 ± 0.1; under setting [2], 2.96 ± 0.88.

On to KQIYNLIHLDPRTREGFTLLHLAV [FEM1B], for which the protein stability index runs as follows: under setting [1], 2.66 ± 0.52; under setting [2], 2.67 ± 0.61.

For KQRPTKLKSLIRLVKHWYQNCKKK [OAS1], the protein stability index runs as follows: under setting [1], 3.44 ± 0.45; under setting [2], 3.08 ± 0.42.

For the sequence KREMILKRKEEEALKDSLRPKLSE [VDR], the protein stability index came out at 4.82 ± 0.28 under setting [1] and 5.24 ± 0.24 under setting [2].

Regarding KRLYDKAAKMYHQLKKCETRKLSP [SMG5], the protein stability index runs as follows: under setting [1], 2.28 ± 0.18; under setting [2], 2.38 ± 0.39.

KSIYYITGESKEQVANSAFVERVR [HSP90AB1]: the protein stability index under setting [1] is 3.11 ± 0.32.

KSLLPHLKTGNSSPGIGAVYLANQ [RTP4]: the protein stability index is, setting by setting: under setting [1], 2.71 ± 0.16; under setting [2], 2.77 ± 0.2.

As for KSPIAPCSLDKRVILIFHCEFSSE [CDC25B], the protein stability index was 2.73 ± 0.5 under setting [1] and 2.8 ± 0.47 under setting [2].

On to KSVRLARELESREAELRRRDTFYK [CHCHD6], for which the protein stability index by setting is: under setting [1], 4.23 ± 0.26; under setting [2], 4.36 ± 0.29.

As to KTCNPPDAGPMVVHCSAGVGRTGC [PTPRD], the protein stability index is 3.5 ± 0.32 under setting [1] and 3.5 ± 0.34 under setting [2].

As for KTHSSPALSQGHVTGSKTTKDATG [PSD2], the protein stability index amounted to 5.37 ± 0.06 under setting [1] and 5.46 ± 0.17 under setting [2].

Regarding KTVCGYYTSAGTYGLDSVKKKCLE [GMCL1], the protein stability index stood at 3.16 ± 0.3 under setting [1] and 2.97 ± 0.49 under setting [2].

As for KVCLLGDTGVGKSSIVWRFVEDSF [RAB22A], the protein stability index reads like this: under setting [1], 2.28 ± 0.22; under setting [2], 2.48 ± 0.68.

Turning to KVEEVSLPEQVDIIISEPMGYMLF [CARM1], the protein stability index runs as follows: under setting [1], 2.88 ± 0.49; under setting [2], 2.54 ± 0.35.

KVFIPSLFLSHVLALGLGIYIGKR [BNIP3L]: the protein stability index worked out at 2.34 ± 0.89 under setting [1] and 2.3 ± 0.6 under setting [2].

Turning to KVKTMEVTSVSIELEKNFSNFPRQ [TRIM39], the protein stability index worked out at 3.15 ± 0.23 under setting [1] and 3.42 ± 0.36 under setting [2].

With KVKVPQKTAGKENHFDMHRVGKWH [ZNF75A], the protein stability index runs as follows: under setting [1], 2.87 ± 0.45; under setting [2], 3.43 ± 0.51.

For KVLLCHGELRSKSGHKLYIFLFQD [NET1], the protein stability index amounted to 2.62 ± 0.55 under setting [1] and 2.57 ± 0.57 under setting [2].

Turning to KVTGVEYHNAGTQTVPKRIPERLS [IQUB], the protein stability index by setting is: under setting [1], 4.22 ± 0.22; under setting [2], 4.23 ± 0.32.

As for KVYYEVIQLIKTNKKHIHSRSTLE [SMG5], the protein stability index is, setting by setting: under setting [1], 2.33 ± 0.93; under setting [2], 2.26 ± 0.25.

For KYGDIPRGIFVVRGENVVLLGEID [LSM1], the protein stability index is, setting by setting: under setting [1], 2.27 ± 0.093; under setting [2], 2.4 ± 0.32.

Regarding KYRNPSLKLMVNVCGHTLCESCVD [MNAT1], the protein stability index under setting [1] amounted to 2.53 ± 0.34 and the protein stability index under setting [2] was found to be 2.83 ± 0.31.

The sequence KYSVYIYVYFHTKLTSQNSKRVS [R3HDM1] yielded a protein stability index (treatment: DMSO, c terminus: native) of 2.55 ± 0.71 and a protein stability index (treatment: MLN4924 1 uM, 8 h, c terminus: native) of 2.24 ± 0.15.

In turn, LALDREPPPHLLPEKHQVPEKLIW [WDR88] returned a protein stability index under setting [1] of 3.31 ± 0.32 and a protein stability index under setting [2] of 3.17 ± 0.3.

For LALRTLPGPSWVRGSGPSVLSRLQ [ALKBH7], the protein stability index runs as follows: under setting [1], 2.62 ± 0.14; under setting [2], 2.48 ± 0.3.

For LAMNYKHGDPIPKVEFTEEEIKTW [TPH1], the protein stability index came to 4.21 ± 0.33 under setting [1] and 4.35 ± 0.24 under setting [2].

With LARGPLNQTALHLAAAHGHSEVVE [RIPK4], the protein stability index is, setting by setting: under setting [1], 4.36 ± 0.18; under setting [2], 4.55 ± 0.19.

As for LASARIIEQDAVVPSEWLSSVYKQ [GMCL1], the protein stability index is 3.31 ± 0.17 under setting [1] and 3.19 ± 0.24 under setting [2].

Consider LASLSFIDTVYSTAFAPKMIVDLL [OR4A15], for which the protein stability index by setting is: under setting [1], 2.66 ± 0.32; under setting [2], 3.05 ± 0.34.

Turning to LAVYHRLWDRAYVRLKPALQRLDF [RETREG3], the protein stability index runs as follows: under setting [1], 2.31 ± 0.38; under setting [2], 2.56 ± 0.4.

LCQVAQEALASAGASCCGQPLASH [VENTX]: the protein stability index runs as follows: under setting [1], 3.38 ± 0.27; under setting [2], 3.42 ± 0.15.

Consider LDAVEAQIGCKLPDDYRCSYRIHN [FBXO3], for which the protein stability index reads like this: under setting [1], 2.98 ± 0.39; under setting [2], 3.15 ± 0.33.

Take LDQLDESLRDKVLQLQKGSDTEAQ [INTS3]: the protein stability index turned out to be 5.46 ± 0.12 under setting [1] and 5.31 ± 0.21 under setting [2].

Take LDRVRGGRQKYKRRPEVDPLPFPG [ESRRA]: the protein stability index by setting is: under setting [1], 3.68 ± 0.36; under setting [2], 3.92 ± 0.41.

In the case of LEAGLPLQVRGYPEEKKEEEGSAN [CHGA], the protein stability index is, setting by setting: under setting [1], 5.61 ± 0.35; under setting [2], 5.79 ± 0.15.

On to LEALHLEALCEEDLLLWIQKHTEV [DENND6A], for which the protein stability index is 2.68 ± 0.17 under setting [1] and 2.84 ± 0.67 under setting [2].

Sequence LEFFYGIATATEIAYYSYIYSVVD [SLC19A2] yielded a protein stability index under setting [1] of 3.5 ± 0.48 and a protein stability index under setting [2] of 3.27 ± 0.46.
